Paper PMC3074137
Values belong to the molecule of their own block, whether it stands above or below them.

Assays:
His6-eIF4G-MC (human) = His6-eIF4G-MC (human) (UniProt Q04637); assay: SPR
[1] = target: eIF4G-MC (83.5 kDa fragment of human eIF4GI, residues 712-1451) (human) (UniProt Q04637); assay: SEC
[2] = target: eIF4G-MC (83.5 kDa fragment of human eIF4GI, residues 712-1451) (human) (UniProt Q04637); assay: ITC
eIF4G-MC (F978A) (human) = eIF4G-MC (F978A) (human) (UniProt Q04637); assay: ITC
Sequence of eIF4G-MC (F978A) (human) (Q04637 711-1450 F977A): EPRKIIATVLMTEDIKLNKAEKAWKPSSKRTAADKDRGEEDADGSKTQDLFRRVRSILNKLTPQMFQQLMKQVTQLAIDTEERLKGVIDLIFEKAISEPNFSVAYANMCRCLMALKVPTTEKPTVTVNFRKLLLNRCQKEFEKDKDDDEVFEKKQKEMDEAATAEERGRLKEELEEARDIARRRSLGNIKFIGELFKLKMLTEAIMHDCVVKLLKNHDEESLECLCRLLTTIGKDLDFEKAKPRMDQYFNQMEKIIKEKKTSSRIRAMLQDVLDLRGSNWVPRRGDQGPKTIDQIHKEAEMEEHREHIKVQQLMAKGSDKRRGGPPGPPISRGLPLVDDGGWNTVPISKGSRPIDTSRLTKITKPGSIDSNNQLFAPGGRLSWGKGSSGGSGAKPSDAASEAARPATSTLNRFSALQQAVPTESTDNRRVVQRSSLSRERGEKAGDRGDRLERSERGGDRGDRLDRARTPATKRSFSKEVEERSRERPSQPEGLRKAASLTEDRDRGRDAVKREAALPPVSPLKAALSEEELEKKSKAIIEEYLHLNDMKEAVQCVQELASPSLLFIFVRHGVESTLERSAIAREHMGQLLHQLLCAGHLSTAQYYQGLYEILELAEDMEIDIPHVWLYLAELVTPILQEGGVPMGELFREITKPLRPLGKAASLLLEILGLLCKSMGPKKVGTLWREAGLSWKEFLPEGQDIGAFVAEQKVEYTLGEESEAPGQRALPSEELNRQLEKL

[3] = target: eIF4G-MC (83.5 kDa fragment of human eIF4GI, residues 712-1451) (human) (UniProt Q04637); assay: SAXS
eIF4A (human) = eIF4A (human) (UniProt P60842); assay: ITC
eIF4A;eIF4BΔC = eIF4A;eIF4BΔC (human;human, UniProt P60842;P23588 1-406;1-431, |); assay: pull-down
eIF4A;eIF4B = eIF4A;eIF4B (human;human, UniProt P60842;P23588 1-406;1-611, |); assay: pull-down
eIF4B = eIF4B (human, UniProt P23588 1-611); assay: pull-down
Sequence of eIF4B (P23588 whole entry): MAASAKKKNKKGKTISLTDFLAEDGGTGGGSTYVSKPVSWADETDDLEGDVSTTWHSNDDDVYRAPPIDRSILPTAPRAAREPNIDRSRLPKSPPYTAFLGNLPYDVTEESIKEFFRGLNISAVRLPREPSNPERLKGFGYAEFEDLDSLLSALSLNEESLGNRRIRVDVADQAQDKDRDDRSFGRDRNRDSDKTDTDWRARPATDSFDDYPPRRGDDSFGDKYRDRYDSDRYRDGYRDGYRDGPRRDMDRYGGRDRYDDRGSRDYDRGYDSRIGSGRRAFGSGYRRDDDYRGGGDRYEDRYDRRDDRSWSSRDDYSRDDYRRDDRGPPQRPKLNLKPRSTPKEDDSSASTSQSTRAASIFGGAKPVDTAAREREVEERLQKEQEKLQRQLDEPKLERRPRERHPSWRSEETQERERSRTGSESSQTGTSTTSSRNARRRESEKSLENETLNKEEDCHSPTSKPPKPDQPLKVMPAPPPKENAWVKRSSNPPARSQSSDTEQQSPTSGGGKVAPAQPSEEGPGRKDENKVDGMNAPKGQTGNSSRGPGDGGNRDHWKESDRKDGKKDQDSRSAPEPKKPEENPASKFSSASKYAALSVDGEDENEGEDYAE

Sequence of eIF4G-MC (83.5 kDa fragment of human eIF4GI, residues 712-1451) (human) (Q04637 711-1450): as the sequence (Q04637 711-1450 F977A) above, with A267F counted along it
Sequence of eIF4G-MC (83.5 kDa fragment of human eIF4GI, residues 712-1451) (Q04637 711-1450): as the sequence (Q04637 711-1450 F977A) above, with A267F counted along it
Sequence of His6-eIF4G-MC (human) (Q04637 711-1450): as the sequence (Q04637 711-1450 F977A) above, with A267F counted along it

KD high-affinity site (His6-eIF4G-MC (human)): 67 nM
stoichiometry N (eIF4A per eIF4G-MC) [1]: 1
KD high-affinity site [2]: 50 nM
KD low-affinity site [2]: 775 nM
Kd (eIF4G-MC (F978A) (human)): 417 nM
stoichiometry N (eIF4A per eIF4G-MC (F978A)) (eIF4G-MC (F978A) (human)): 1
stoichiometry N (eIF4A per eIF4G-MC) [3]: 1
Molecule: eIF4A (from UniProt P60842 1-406) (enzyme)

KD high-affinity site (eIF4A (human)): 42 nM
KD low-affinity site (eIF4A (human)): 1600 nM
Molecule: eIF4G-MC (83.5 kDa fragment of human eIF4GI, residues 712-1451) (from UniProt Q04637-8 712-1451) (domain or fragment)

Molecule: UUUUUUUUUUUUUUUUUUUUUUUUUUUUUU (ssRNA) [pU30-biotin]
binding result (eIF4A;eIF4BΔC): binds
binding result (eIF4A;eIF4B): binds
binding result (eIF4B): binds
